Each block holds one binder with its values, some of them ahead of it.
Assays:
[1] = target: T1, gD epitope-tagged LgR5 324-907 (amino acids 324-907 of SEQ ID NO: 67) on transiently transfected 293 cells (human, UniProt O75473 324-907); assay: FACS on transiently transfected 293 cells
T1 sequence: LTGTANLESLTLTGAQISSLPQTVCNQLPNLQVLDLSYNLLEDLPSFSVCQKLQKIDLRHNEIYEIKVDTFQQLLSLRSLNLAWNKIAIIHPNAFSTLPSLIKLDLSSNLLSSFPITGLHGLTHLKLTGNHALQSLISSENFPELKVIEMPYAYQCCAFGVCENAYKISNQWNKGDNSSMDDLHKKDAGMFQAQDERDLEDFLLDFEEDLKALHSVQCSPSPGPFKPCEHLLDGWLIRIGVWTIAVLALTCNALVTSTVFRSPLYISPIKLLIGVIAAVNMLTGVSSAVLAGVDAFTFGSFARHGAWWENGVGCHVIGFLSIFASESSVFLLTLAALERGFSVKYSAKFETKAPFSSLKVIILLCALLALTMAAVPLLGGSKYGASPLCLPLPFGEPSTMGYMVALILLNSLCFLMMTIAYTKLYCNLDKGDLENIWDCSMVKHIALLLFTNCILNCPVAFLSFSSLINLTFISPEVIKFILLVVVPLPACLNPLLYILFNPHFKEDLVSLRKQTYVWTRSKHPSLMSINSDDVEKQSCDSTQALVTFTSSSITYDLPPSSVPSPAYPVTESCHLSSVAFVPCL

[2] = target: T2, gD epitope-tagged LgR5 424-907 (amino acids 424-907 of SEQ ID NO: 67) on transiently transfected 293 cells (human, UniProt O75473 424-907); assay: FACS on transiently transfected 293 cells
T2 sequence: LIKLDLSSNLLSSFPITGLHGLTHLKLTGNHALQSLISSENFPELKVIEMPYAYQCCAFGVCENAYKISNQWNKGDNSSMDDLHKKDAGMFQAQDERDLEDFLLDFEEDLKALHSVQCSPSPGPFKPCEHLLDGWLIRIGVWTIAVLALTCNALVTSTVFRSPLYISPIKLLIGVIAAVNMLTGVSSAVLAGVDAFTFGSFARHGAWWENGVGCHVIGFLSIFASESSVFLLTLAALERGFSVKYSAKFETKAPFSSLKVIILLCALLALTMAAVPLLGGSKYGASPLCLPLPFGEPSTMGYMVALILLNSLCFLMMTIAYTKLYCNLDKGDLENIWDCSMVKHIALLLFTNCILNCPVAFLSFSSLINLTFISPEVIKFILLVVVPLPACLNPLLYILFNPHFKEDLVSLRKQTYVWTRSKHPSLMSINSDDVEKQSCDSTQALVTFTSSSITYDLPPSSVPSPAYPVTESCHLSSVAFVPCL

[3] = target: T3, human LgR5 ECD (amino acids 22-557 fused to His-Fc expressed in a baculovirus system, or amino acids 22-558 … (human, UniProt O75473 22-557)); assay: SPR (BIAcore-3000), antibody captured by anti-human Fc, LgR5 ECD-Fc injected
T3 construct: not shown: C-terminal His-tagged Fc
T3 sequence: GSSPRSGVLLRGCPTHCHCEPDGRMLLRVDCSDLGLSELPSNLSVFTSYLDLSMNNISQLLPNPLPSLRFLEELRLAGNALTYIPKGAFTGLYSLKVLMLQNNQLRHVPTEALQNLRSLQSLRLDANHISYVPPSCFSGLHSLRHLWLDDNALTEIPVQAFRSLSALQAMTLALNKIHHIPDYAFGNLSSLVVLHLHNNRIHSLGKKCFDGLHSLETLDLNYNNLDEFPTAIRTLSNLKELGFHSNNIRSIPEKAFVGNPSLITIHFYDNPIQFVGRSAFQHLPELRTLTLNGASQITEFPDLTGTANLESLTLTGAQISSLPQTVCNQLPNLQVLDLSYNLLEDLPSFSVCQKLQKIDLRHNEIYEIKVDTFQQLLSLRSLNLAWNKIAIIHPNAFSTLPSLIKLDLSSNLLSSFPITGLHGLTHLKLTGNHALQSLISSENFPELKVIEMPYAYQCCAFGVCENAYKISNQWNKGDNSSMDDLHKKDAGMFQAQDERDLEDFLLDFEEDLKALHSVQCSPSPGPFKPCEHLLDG

[4] = target: T3, human LgR5 ECD (amino acids 22-557 …); assay: BIAcore-3000 SPR, IgG captured on goat anti-human Fc, human LgR5 ECD-Fc injected, 25 C, 1:1 Langmuir model
Description: The affinity of each 8E11 IgG variant for human LgR5 was determined by surface plasmon resonance using a BIAcore™-3000. BIAcore™ research grade CMS chips were activated with 1-ethyl-3-(3-dimethylaminopropyl) carbodiimide (EDC) and N-hydroxysuccinimide (NHS) reagents according to the supplier's instructions. Goat anti-human Fc IgGs were coupled to the chips to achieve approximately 10,000 response units (RU) in each flow cell. Unreacted coupling groups were blocked with 1M ethanolamine. For kinetics measurements, anti-LGR5 antibodies were captured to achieve approximately 300 RU. Two-fold serial dilutions of human LgR5ECD (amino acids 22-557 fused to His-Fc expressed in a baculovirus system, or amino acids 22-558 fused to Fc expressed from CHO cells; 125 nM to 0.49 nM) were injected in HBS-P buffer (0.01M HEPES pH7.4, 0.15M NaCl, 0.005% surfactant P20) at 25° C. with a flow rate of 30 μl/min. Association rates (kₒₙ) and dissociation rates (koff) were calculated using a 1:1 Langmuir binding model (BIAcore™ Evaluation Software version 3.2). The equilibrium dissociation constant (Kd) was calculated as the ratio koff/kₒₙ.

- binding result [1]: no binding (tested: 10 µg/ml)
- binding result [2]: no binding (tested: 10 µg/ml)
- Kd [3]: 2.4 nM
- Kd [4]: 3 nM
- koff [4]: 0.00064 s⁻¹
- kon [4]: 210000 M⁻¹ s⁻¹
B1: chimeric monoclonal antibody 8E11 (antibody, human IgG1, V domains shown)
VH: QVQLQQSGTELMKPGASVKISCKATGYTFSAYWIEWIKQRPGHGLEWIGEILPGSDSTDYNEKFKVKATFSSDTSSNTVYIQLNSLTYEDSAVYYCARGGHYGSLDYWGQGTTLKVSS
VL: NIVLTQSPASLAVSLGQRATISCRASESVDNYGNSFMHWYQQKPGQPPKLLIYLASNLESGVPARFSGSGSRTDFTLTIDPVEADDAATYYCQQNYEDPFTFGSGTKVEIKR
notes: also called ch8E11; chimeric 8E11

- binding result [1]: no binding (tested: 10 µg/ml)
- binding result [2]: no binding (tested: 10 µg/ml)
- Kd [3]: 1.6 nM
B2: human antibody YW353 (antibody, human IgG1, kappa, V domains shown)
VH: EVQLVESGGGLVQPGGSLRLSCAASGFTFTSYSISWVRQAPGKGLEWVAEIYPPGGYTDYADSVKGRFTISADTSKNTAYLQMNSLRAEDTAVYYCAKARLFFDYWGQGTLVTVSS
VL: DIQMTQSPSSLSASVGDRVTITCRASQDVSTAVAWYQQKPGKAPKLLIYSASFLYSGVPSRFSGSGSGTDFTLTISSLQPEDFATYYCQQSYTTPPTFGQGTKVEIKR
notes: also called huYW353

- binding result [1]: no binding (tested: 10 µg/ml)
- binding result [2]: no binding (tested: 10 µg/ml)
- Kd [4]: 3.1 nM
- koff [4]: 0.000853 s⁻¹
- kon [4]: 279000 M⁻¹ s⁻¹
B3: humanized monoclonal antibody 8E11.v2 (antibody, human IgG1, kappa, V domains shown)
VH: EVQLVQSGAEVKKPGASVKVSCKASGYTFSAYWIEWVRQAPGQGLEWIGEILPGSDSTDYNEKFKVRATFTSDTSTSTVYLELSSLRSEDTAVYYCARGGHYGSLDYWGQGTLVTVSS
VL: DIVMTQSPDSLAVSLGERATINCRASESVDNYGNSFMHWYQQKPGQPPKLLIYLASNLESGVPDRFSGSGSGTDFTLTISSLQAEDVAVYYCQQNYEDPFTFGQGTKVEIKR
notes: It was assessed as an IgG; also called hu8E11.v2; hu8E11v2

From patent publication US20130336885A1 (Genentech, published 2013)
